Laboratory results reported in doi:10.1101/2022.09.23.509211 (bioRxiv, 2022).

Target: Rabbit skeletal muscle actin (actin filaments, F-actin) (rabbit, UniProt P68135 1-377)
Assay: co-sedimentation

B1: Mouse metallothionein-3 (MT-3), recombinant, cleaved WT MT-3 (natural protein)
chain: not shown
Kd: > 20 µM
